Experimental data: the DeepSol protein solubility set

Test: soluble on expression in E. coli; label from the status in PepcDB or PDB records
For “MGSDKIHHHHHHMDIIDYLPQKMKAEAEAYMPCGLEEIRVRAGKQVQYMFAGGCRAGVYISHSDIEEMINYLSGYSFHAIAPQLAAGYFTVEGGHRVGIAGQMGCDGGKVTAVSEIASLNIRIAHQIRDVAMPLMPYIRDENSIYNTLVISRPGEGKTTFLRDCIRILSDGCDGKNALKVSVVDERSEIAACYLGVAQNDIGNSSDVLDNCPKSLGMRMLLRSMSPDVIAVDELGGEGDIEALNQLVSCGIRILGSVHGTNADDLRRKILPHAIERFVFIDHDEKGVRRYSIYDEAYRLLYSTVCGIGADKRLQQKKKGRYSDAV”, the “soluble on expression in E. coli” value was “not soluble”.
For “MGSDKIHHHHHHMDIKLKDFEGPLDLLLHLVSQYKVDIYEVPIVEVIEQYLNYIETLQVMKLEVAGDYMLMASQLMLIKSRRLLPKVVEHIEEDLEQDLLEKIEEYSRFKAVSQALAKQHDQRAKWYSKPKQELIFEDAILQEDKTVMDLFLAFSNIMAAKRAVLKNNHTVIERDDYKIEDMMASIKQRLEKENVIRLSAIFEECQTLNEVISIFLASLELIKLHVVFVEQLSNFGAIILRKEKK”, the “soluble on expression in E. coli” value was “not soluble”.
With “MGSDKIHHHHHHMDIKQLKYFVEIVKSGFNLSIASKTLHISQPALSQIIKNFEESEDVYLFERYKGRLNGLTPAGERFYVNAEHIINEYKNMMEDLREDSVQFKGKVRIGIPPLILGIAFSDVVAQLVANNPDIEFDIVEKGAYDLNRMLILQELDYAVLLHPHKIDKSVVTEHVLQEDELTAFLNINHPLAKKDKIDWNDLNEQLLAIFNPTFMIHHKLMQKFTDENVKLKRYIMSGSWDFLLLSTTNSDFITILPSPVHDFFENSKIIEKPFNHPITWKVILCRPKKERYSHVDQHVFKFIIDFFSKKNS” the “soluble on expression in E. coli” value was “not soluble”.
For “MGSDKIHHHHHHMDILLANPRGFCAGVNRAIQIVDRALELFGAPIYVRHEVVHNRHVVEDLRARGAIFVEELDEVPDAATVIFSAHGVPIAVREHAAARGLSVFDATCPLVTKVHMEVKKYSRDGMEMVLIGHAGHPEVEGTMGQVEEGMMYLVSNVSDVATLAPRNPDKLAYITQTTLSMDDTAEVIVALRSRFPLIEGPKKDDICYATQNRQDAVKSLAPDVDILLVVGAPNSSNSSRLAELGTRLGTQTHLIEDAQQLRREWFEGVGKIGISAGASAPESLVQEIMDTLRGWGARVPQEMPGVEEKVTFSLPLALIQAQTRREGA”, the “soluble on expression in E. coli” value was “not soluble”.
In the case of “MGSDKIHHHHHHMDIQKIAKFFEQLQNQDFAQWEDCFGKYDVEFSDDTAETFSQSCDHVVLFNNRLSKVMLLKTSDSILSIGGFQAHNRGKIEAKNRKKTLITIPTQLANDSFGTNRYSLQDNERKPSMGGIYPCKTIFDFSILLSNEIEKSLWGIGEYVGVYFSIIDYSSKYQENFEELIAWTVEQIDELSSLLKREDNRTILRRIASLLTVKCLIMRSNGNHEIGCSIDHSFARYLENKIQIPHGKAVYLGSLLTLLFYPEWEDKGLSLEKLFKIGHYVGITMSDIQYLKTQDFSTLVKEASLLRPKRSFSLDQIQEGEAMRIKKAKERANMITQIWDR”, the “soluble on expression in E. coli” value is reported as “not soluble”.
With “MGSDKIHHHHHHMDIRSLKLYLHLCDSLHFAKTAEQMHMSPSTLSRTLQRLEDEVGGKLFERDNRSVALTHAGKEFKLFAEHTLSQWLSLKGKVDPQQAQLHGQLSLYCSVTAAYSHLPKLLDRFRSIHPNVDIKLATGDAANAVNELNRNRADIAIIALPDNLASSLFFTAIDKVPLSLIVPTITCPVQQAISQANIAWQDLPYIVPEHGPGRQRADNWFKAMGFKPNIYAQVAGQEAIASMVALGCGVAISPEVVINNSPVRDRIQMLASPITIPAFELGFCCKKKRLEEAVLKAFLASWAIE” the “soluble on expression in E. coli” value was “not soluble”.
With “MGSDKIHHHHHHMDISRKIERLELFLEQDKDNLNLMLDLIYLSLDAGSIDIAENYLYRAQQQHPESSQLIYLSGLISCQRKNFEQGLITFNSLLSAGVRSASILYQAAYCNIQLGNPETALERLIHASELSPETEILYLLARTQYQLKNFELAVSTLTALADSDAKYAPAHSLLSQIYMDIEQWADAQASAAKALALDPNNVTANITIGFITLNSNQYDQAARHFSQALNVNDESCRTHLGLAIIDVFQQRYVEAEQHLLKALSLQNDLLPGINLLGWLYLLTDRFALARDVFDRGVEVDRSYAEMYGGIAIVDILEKDETAARKNVAIALRLDKMSYAGNFAKILLLQNAQRLSQAEKVWKNLISSPIDDTGKTLEQAVIEQIRAYLKVTLH” the “soluble on expression in E. coli” value was “not soluble”.
With “MGSDKIHHHHHHMDKRNSCYLCFGFQSRILARESALMDTQSLQAFLAVADHGSFSLAAEQLHLTQPAVSKRIAGLEGQVGAQLFDRLNRRVTLTEAGRTLLPRARQILVMFDDSRRALSNLSGDISGSLTMATSHHVGLHRLPPLLKAYTQAYPDVRMDMRFLDSEQAYQGVLDGDLELAVVTLAPVPDPALTVVPVWIDQLRFVCGREHALAGRDTVALSALSDYDAVLPGHLTFTRGIVVDTFARDGLQVNVSLSTNYLETLKMMVAIGLGWSVLPETMIDDEIEVIPIDHRPIQRPLGYLFHKSRTLSNAARAMLEMLDAARDTTARQWV” the “soluble on expression in E. coli” value was “not soluble”.
In the case of “MGSDKIHHHHHHMDLASRLLLLLEVSELGSFVKVSELRNVNRSAISKQIGKLEKELGVHLLNRTTRSLSLTAAGSEMVNQAKQLRDLLNNSKRLAENYHSEPRGELKISSSTLFGRQYVQQAVLKFQAQYPDIRIELLLEDRIVDLVGEGFDIGFRIGEPKESNLIAKQIAQNRLLIVAAPSFIEKHGKPTTIPKLESLPAVVYSAQGLLIDKIKYLDNTGNEAFIQLNTAYKVNEVEMLINTAVAGEMLTVTTAQMIENEVLEGKLIPIMTHINLADYGTFYAVYPHRNSPLKTKLFIETLKEVVGDKRPIWETRIPGFDKMYNNKT”, the “soluble on expression in E. coli” value is reported as “not soluble”.
For “MGSDKIHHHHHHMDLQYLDNFLALAHYRSFSAAADACYISQSSFSKRIMRLENNLGVTLFERSTRQVSLTEYGQIYLKYAQQIKTLSRQATDEINRRHAEDEGIVIGGIPSISEYGILDLISGFIKTTHIHCQVKSAPSEDLEPMLLNQTLDFAFIKEVHHTNLFYQLPYAEDHLVAVLPANHPLANLSEIKLQQLANEDFIFQPVNSRPYELCMMICKQNGFTPNVIYADRIIENILNFVKKGLGVSLLMEKLVPKDSELICLPIHPAVVADINLCYLKKEPLSQYGYAFLNYFSHQNNAR”, the “soluble on expression in E. coli” value was “not soluble”.
In the case of “MGSDKIHHHHHHMDLYQEELIKKISAITPFYIVGGTVRDHLLNRPGKDVDGIIPIPLEELEKHLREWGYHPLKIGAKHQTLSVFQQGQRMDINFFDGDLEADALRRDFTINAVFQDARTGELIDPLQGREDLENKLLRACGNPWERFREDPVRILRMVRFSVQYGMDIEEDTFRSAQSLLPELKHVASERTSEELGRILTLADPAAGIRLLNELGYLTLYLPELVRLQGLAQNRYHTKDAWEHTLQVLANTPPQPILRLAGLFHDLGKWEVASRECYVWGKCWAEDKGYYIGEYRILGRQLHRYHGDYVEVHGTRLDHYPQVIQVKRIRKDPSCRRGFEWVRDGKRHFLGHEKESGRLTRQILARFRLAMVLGKEGEGGEKELLWLIENHMSGTLSFIAELRGEGSALQLNQKVRQFVWEKGWDGRSYRLTRVDQLLELWRADFYGGKKREPKEEQIFEELLEKLHQTNKAVQKRHQELEWGELEKFAQEHKIKGREWGDFKESLRKTRVVSVDWIPLTTGFLEKEYKHFKGRNYAKRERE”, the “soluble on expression in E. coli” value is reported as “not soluble”.
For “MGSDKIHHHHHHMDNKELKAFCNLIGLNCVGVAGVDKYDNLEKILKDRQQKGYLTGMEEPIIENRINPRHIMKDANSIIVCAFPYHINRQEKNKNSNLSKYCHGKDYHIVVKDFLQQICDYISKTVTDFKYKLFADNGPLVDRYLAYLSGIGYFGINNNIITDEYGSYVFIGYIVNNYKFEEDKPLEKSCFKCGKCVKYCPGNAILGNYDMNPKKCLSYITQKKGDLSEKEKVVLKNGKKVFGCDICQEVCPHNVEIPTTHILEFKENIIDYLDYDEIQNISNKEFKRRYGDRAFSWRGRNIIKRNMEIILDKYDD”, the “soluble on expression in E. coli” value was “not soluble”.
For “MGSDKIHHHHHHMDRLIYTAMTGLKHIMEQQSTTANNLANATTTGFRAQIDSFRAVPVLSDGLPTRAFVVDATVGTNFNSGVINTTGRELDLAIRDQGWFAVQRPDGTEAYTRNGNFKLNENGVLQTQDGMMVLGDNGPITIPLEAKVAFANDGMVSAVATNVVPLFTNMIGRLKLVNPGDDNLVRGPDGLFETRNREPVPASANVTIVSGALEGSNVNVVEEMVNMISQARQFDLQTKLIQNAENNATKAGQIFSLS”, the “soluble on expression in E. coli” value was “not soluble”.
For “MGSDKIHHHHHHMDRYRGNAEAVKNLVRGHAVHRDVYVDKEVFDLEMEQLFPNSWVYVGHESQLKDPGDYITSKIGHQPILISRHKNGTIHVLHNRCPHKGVKIASEPCGNTGKFFRCPYHAWSFKTDGSLLAIPLKKGYEGTGFDNDRAKDGLPRVENVHIYRGFIFARLSDTGLSFEDYFGDSLSTIDNMVDRSPKGEVEIIAAPIRYMHTCNWKMLVDNQTDTCHPMVAHESSAGTAVSVWEREKHRFTETPMAVQLYAPFMSPYEFYESAGIRVWPNGHGHSGVSGSIHQDYDDVDGYLEMMVEAYGETRAREILGDIRHNTLYFPNVMVKGPVGILRNFIPVAVDRTLVESWAFRLVGAPDKIYERALMYNRFINAPTSIVGHDDLEMYERAQEGLLSDANEWINLRRLYEEGEPEDVTEVVNGTSERQMRNTFYAWRKFMVQGMEQKQEVSA”, the “soluble on expression in E. coli” value was “not soluble”.
In the case of “MGSDKIHHHHHHMDSIQESDVLNAVKTKLPPCCLRIFRNKIILVGTYDLDKSTGYRSGSLDVFTMDLKLLCSNNTYGAILDLKLSPFDDTLICTAHSTGNIMLWRIRCTDKDDFQSNELDIHAIANLQLFEKDVLIASCHFSPLDCKKLLVTNTAGEAATIDIRTLSVQFTASAIAQAYSKLDKIDYEVQGATEKVIHVESGQFLKPHELECWTAEFGSLQPFQDVVFTGGDDSRIMAHDLRSKEFIWSNNRIHDAGVVSIKCSQPNFRNNKPTSIITGSYDDNIRSLDLRMMGESIFPGANVPTVNKLACDLGGGVWRFVESPIDQEQSHHNGSDRLLVCCMYNGAKVVTMNDNSDEYFQIQHYLKKGHDSMCYGGDWSNSLIATCSFYDNSLQTWIV”, the “soluble on expression in E. coli” value is reported as “not soluble”.
For “MGSDKIHHHHHHMDSLDQCIVNACKNSWDKSYLAGTPNKDNCSGFVQSVAAELGVPMPRGNANAMVDGLEQSWTKLASGAEAAQKAAQGFLVIAGLKGRTYGHVAVVISGPLYRQKYPMCWCGSIAGAVGQSQGLKSVGQVWNRTDRDRLNYYVYSLASCSLPRAS”, the “soluble on expression in E. coli” value was “not soluble”.
In the case of “MGSDKIHHHHHHMDSSIDLSLAYADSGVGEVLDQLDCELIGLKPVKTRIREIAALLLVDRARKDLDLASTMPSLHMSFTGRPGTGKTTVAIRISQILHRLGYLRKGHVVTVTRDDLVGQYVGHTAPKTREMIKRAQGGVLFIDEAYYLYKPGNERDYGAEAIEILLQDMESRRGDFVVIFAGYKDKMDAFYQSNPGLSSRVAHHIDFPDYSNRELLAIAQLFLVQQNYYFGDEAEGIFEDYIERRRQLPFFANARSIRNALDRTRLRQANRLFARMGEPLSRDELMTIEPADILASRVFQGEVEGRHPTQPLMESSE”, the “soluble on expression in E. coli” value is reported as “not soluble”.
For “MGSDKIHHHHHHMDTLTRIRAFIDVVEAEGFSAAARKTGRSKALLSKYVRELEDELGALLLNRTTRQFSMTEAGHTYYRSAADILKEIDNLADLVRENNVGISGKIRITVPRSFTDAEVGQSLIDFALQHPDLSIEIVAEDRFVDLIEEGFDLAIRVTKLEDSGMIARKLADFRSYACASPVFLEKYGPLTHPQDLSKVPVLIDTNTRGHNSLRLRQPDGEAFTVNISGPLEVNSPQTTLRGALSGLGIALLPDFVARRHIESGALISIFEDYMPSGSGIYAVYPHRRYLPAKVRALVDFMHNWFKRNGTCQPKQGTPPSE”, the “soluble on expression in E. coli” value was “not soluble”.
With “MGSDKIHHHHHHMDVRFINEQTIMIYFENKISEETYRNVTAMVRWIREKEILEIQDIVPSYRAVLIYFDEQAITSSKLIENLELNKFNEKNVHAVNQTNRIIKIPVQYGGTYGPDIEEVAKHNRITVEQVIEKHTSKPYLIYMLGFMPGFPYLGGLDEQLHTPRRNQPRLKIHAGSVGIANNQTGLYPSDSPGGWQIIGRTPLKVFSSEREPMSMYEAGEWIQFYAIDEQKFIQIERDISDGNFNVDDWVVIENVN” the “soluble on expression in E. coli” value was “not soluble”.
